Paper PMC11405398

Biological target: spore coat protein GerQ (Bacillus amyloiquefaciens)
Assay: cryo-EM structure; native filaments extracted from B. amyloiquefaciens biofilm; helical reconstruction with C9 point group symmetry, rise 34.2 Å, twist −18.4°; 3.3 Å; partially unbundled filaments

- stoichiometry N (subunits per ring): 9
Substance: spore coat protein GerQ (natural protein)
